IntAct's records for PubMed 28065597

B1: Receptor-type tyrosine-protein phosphatase R (Homo sapiens), Q15256 (parent)
chain: MRRAVCFPALCLLLNLHAAGCFSGNNDHFLAINQKKSGKPVFIYKHSQDIEKSLDIAPQKIYRHSYHSSSEAQVSKRHQIVNSAFPRPAYDPSLNLLAMDGQDLEVENLPIPAANVIVVTLQMDVNKLNITLLRIFRQGVAAALGLLPQQVHINRLIGKKNSIELFVSPINRKTGISDALPSEEVLRSLNINVLHQSLSQFGITEVSPEKNVLQGQHEADKIWSKEGFYAVVIFLSIFVIIVTCLMILYRLKERFQLSLRQDKEKNQEIHLSPITLQPALSEAKTVHSMVQPEQAPKVLNVVVDPQGRGAPEIKATTATSVCPSPFKMKPIGLQERRGSNVSLTLDMSSLGNIEPFVSIPTPREKVAMEYLQSASRILTRSQLRDVVASSHLLQSEFMEIPMNFVDPKEIDIPRHGTKNRYKTILPNPLSRVCLRPKNVTDSLSTYINANYIRGYSGKEKAFIATQGPMINTVDDFWQMVWQEDSPVIVMITKLKEKNEKCVLYWPEKRGIYGKVEVLVISVNECDNYTIRNLVLKQGSHTQHVKHYWYTSWPDHKTPDSAQPLLQLMLDVEEDRLASQGRGPVVVHCSAGIGRTGCFIATSIGCQQLKEEGVVDALSIVCQLRMDRGGMVQTSEQYEFVHHALCLYESRLSAETVQ
B2: Tyrosine-protein phosphatase non-receptor type 12 (Homo sapiens), Q05209 (parent)
chain: MEQVEILRKFIQRVQAMKSPDHNGEDNFARDFMRLRRLSTKYRTEKIYPTATGEKEENVKKNRYKDILPFDHSRVKLTLKTPSQDSDYINANFIKGVYGPKAYVATQGPLANTVIDFWRMIWEYNVVIIVMACREFEMGRKKCERYWPLYGEDPITFAPFKISCEDEQARTDYFIRTLLLEFQNESRRLYQFHYVNWPDHDVPSSFDSILDMISLMRKYQEHEDVPICIHCSAGCGRTGAICAIDYTWNLLKAGKIPEEFNVFNLIQEMRTQRHSAVQTKEQYELVHRAIAQLFEKQLQLYEIHGAQKIADGVNEINTENMVSSIEPEKQDSPPPKPPRTRSCLVEGDAKEEILQPPEPHPVPPILTPSPPSAFPTVTTVWQDNDRYHPKPVLHMVSSEQHSADLNRNYSKSTELPGKNESTIEQIDKKLERNLSFEIKKVPLQEGPKSFDGNTLLNRGHAIKIKSASPCIADKISKPQELSSDLNVGDTSQNSCVDCSVTQSNKVSVTPPEESQNSDTPPRPDRLPLDEKGHVTWSFHGPENAIPIPDLSEGNSSDINYQTRKTVSLTPSPTTQVETPDLVDHDNTSPLFRTPLSFTNPLHSDDSDSDERNSDGAVTQNKTNISTASATVSAATSTESISTRKVLPMSIARHNIAGTTHSGAEKDVDVSEDSPPPLPERTPESFVLASEHNTPVRSEWSELQSQERSEQKKSEGLITSENEKCDHPAGGIHYEMCIECPPTFSDKREQISENPTEATDIGFGNRCGKPKGPRDPPSEWT

Variants of: B1
Conditions: with erbb4_human ERBB4, Q15303

Variant | effect of a mutation on the interaction
D554A;C588S | with no effect

Variants of: B1
Conditions: with ret_human RET

Variant | effect of a mutation on the interaction
D554A;C588S | with no effect

Variants of: B1
Conditions: with igf1r_human IGF1R
Target sequence in this assay (P08069 whole entry, looked up): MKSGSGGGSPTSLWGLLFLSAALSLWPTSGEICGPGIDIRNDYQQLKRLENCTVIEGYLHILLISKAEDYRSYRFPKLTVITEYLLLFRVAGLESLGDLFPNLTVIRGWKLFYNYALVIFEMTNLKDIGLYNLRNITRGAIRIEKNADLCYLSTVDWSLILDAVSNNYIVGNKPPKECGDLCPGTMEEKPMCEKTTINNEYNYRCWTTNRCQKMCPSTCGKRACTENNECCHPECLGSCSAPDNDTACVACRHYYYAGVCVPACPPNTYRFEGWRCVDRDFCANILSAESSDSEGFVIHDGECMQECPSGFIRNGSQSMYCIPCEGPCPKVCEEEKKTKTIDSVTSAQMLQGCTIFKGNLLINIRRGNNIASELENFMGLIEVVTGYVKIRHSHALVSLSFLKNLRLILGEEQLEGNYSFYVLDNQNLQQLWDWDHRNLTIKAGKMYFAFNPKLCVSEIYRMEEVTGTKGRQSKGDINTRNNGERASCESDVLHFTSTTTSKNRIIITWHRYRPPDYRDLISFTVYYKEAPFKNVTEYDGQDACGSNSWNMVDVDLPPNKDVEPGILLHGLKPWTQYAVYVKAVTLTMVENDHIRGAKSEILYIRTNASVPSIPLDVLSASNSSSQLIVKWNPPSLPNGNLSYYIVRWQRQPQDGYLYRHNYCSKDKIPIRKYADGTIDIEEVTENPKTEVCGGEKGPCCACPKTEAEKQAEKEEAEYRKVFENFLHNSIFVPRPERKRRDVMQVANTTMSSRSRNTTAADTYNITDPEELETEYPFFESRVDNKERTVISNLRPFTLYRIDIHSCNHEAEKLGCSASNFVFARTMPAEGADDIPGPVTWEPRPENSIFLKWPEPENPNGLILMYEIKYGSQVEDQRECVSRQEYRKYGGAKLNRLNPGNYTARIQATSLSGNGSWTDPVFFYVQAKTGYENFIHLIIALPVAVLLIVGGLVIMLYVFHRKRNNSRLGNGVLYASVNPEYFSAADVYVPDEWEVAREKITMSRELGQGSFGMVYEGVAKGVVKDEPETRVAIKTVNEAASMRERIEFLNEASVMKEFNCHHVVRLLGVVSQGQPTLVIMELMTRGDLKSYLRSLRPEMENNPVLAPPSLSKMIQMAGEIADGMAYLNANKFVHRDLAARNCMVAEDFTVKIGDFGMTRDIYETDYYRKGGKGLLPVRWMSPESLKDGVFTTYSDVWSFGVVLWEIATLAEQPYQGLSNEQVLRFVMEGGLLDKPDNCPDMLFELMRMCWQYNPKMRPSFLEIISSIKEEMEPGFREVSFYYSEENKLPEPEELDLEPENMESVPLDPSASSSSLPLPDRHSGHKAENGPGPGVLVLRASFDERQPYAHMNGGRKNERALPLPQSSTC

Variant | effect of a mutation on the interaction
D554A;C588S | decreasing interaction

Variants of: B1
Conditions: with ret_human RET
Remark: another data set of the same source

Variant | effect of a mutation on the interaction
D554A;C588S | disrupting interaction
Y249F;D554A;C588S | disrupting interaction

Variants of: B1
Conditions: with ron_mouse Mst1r, Q62190

Variant | effect of a mutation on the interaction
D554A;C588S | disrupting interaction

Variants of: B1
Conditions: with ntrk1_human NTRK1, P04629

Variant | effect of a mutation on the interaction
D554A;C588S | with no effect

Variants of: B1
Conditions: with tie2_human TEK

Variant | effect of a mutation on the interaction
D554A;C588S | decreasing interaction

Variants of: B1
Conditions: with ron_mouse Mst1r

Variant | effect of a mutation on the interaction
D554A;C588S | increasing interaction

Variants of: B1
Conditions: with fgfr2_human FGFR2, P21802
Target sequence in this assay (P21802 whole entry, looked up): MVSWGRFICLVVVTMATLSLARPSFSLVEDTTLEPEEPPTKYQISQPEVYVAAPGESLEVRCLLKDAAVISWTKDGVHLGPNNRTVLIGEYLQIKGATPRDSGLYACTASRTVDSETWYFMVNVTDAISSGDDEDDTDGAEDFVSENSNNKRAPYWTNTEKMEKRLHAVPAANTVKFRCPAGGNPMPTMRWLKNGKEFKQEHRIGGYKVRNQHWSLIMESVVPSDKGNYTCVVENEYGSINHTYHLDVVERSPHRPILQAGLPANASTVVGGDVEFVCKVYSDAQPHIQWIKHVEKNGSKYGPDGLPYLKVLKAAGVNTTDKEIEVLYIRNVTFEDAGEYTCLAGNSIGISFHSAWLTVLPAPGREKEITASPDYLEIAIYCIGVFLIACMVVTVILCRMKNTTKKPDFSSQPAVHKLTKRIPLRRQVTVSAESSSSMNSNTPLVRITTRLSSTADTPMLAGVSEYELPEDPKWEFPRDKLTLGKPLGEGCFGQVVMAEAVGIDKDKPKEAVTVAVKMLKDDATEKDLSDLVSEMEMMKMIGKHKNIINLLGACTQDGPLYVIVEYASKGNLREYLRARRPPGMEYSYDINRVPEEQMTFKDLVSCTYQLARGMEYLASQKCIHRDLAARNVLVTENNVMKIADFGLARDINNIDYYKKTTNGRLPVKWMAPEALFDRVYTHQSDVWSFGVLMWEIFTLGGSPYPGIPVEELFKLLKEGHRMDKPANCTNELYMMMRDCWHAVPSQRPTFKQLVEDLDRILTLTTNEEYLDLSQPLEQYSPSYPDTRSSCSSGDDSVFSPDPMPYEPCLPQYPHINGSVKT

Variant | effect of a mutation on the interaction
D554A;C588S | decreasing interaction

Variants of: B1
Conditions: with fgfr4_human FGFR4, P22455
Target sequence in this assay (P22455 whole entry, looked up): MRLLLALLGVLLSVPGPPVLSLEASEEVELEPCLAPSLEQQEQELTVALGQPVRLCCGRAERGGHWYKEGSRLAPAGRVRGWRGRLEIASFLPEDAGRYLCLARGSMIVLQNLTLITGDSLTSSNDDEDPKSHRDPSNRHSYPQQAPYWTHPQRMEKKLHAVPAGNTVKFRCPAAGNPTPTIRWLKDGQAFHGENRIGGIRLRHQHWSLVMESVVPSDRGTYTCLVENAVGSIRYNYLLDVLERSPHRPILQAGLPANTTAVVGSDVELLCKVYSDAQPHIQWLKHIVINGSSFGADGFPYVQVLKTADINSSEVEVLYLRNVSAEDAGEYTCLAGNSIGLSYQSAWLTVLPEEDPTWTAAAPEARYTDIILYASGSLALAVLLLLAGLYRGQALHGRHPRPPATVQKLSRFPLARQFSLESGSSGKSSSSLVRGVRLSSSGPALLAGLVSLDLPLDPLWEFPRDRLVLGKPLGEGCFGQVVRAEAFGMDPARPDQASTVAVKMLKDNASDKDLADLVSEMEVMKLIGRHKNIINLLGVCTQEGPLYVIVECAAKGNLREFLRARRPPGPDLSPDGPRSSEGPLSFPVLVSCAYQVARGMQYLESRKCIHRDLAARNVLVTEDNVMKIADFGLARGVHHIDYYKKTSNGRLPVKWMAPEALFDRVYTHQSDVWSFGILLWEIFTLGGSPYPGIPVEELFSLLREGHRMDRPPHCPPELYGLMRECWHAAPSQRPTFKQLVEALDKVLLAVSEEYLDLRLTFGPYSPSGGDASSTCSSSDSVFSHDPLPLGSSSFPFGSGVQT

Variant | effect of a mutation on the interaction
D554A;C588S | decreasing interaction

Variants of: B1
Conditions: with vgfr2_human KDR
Target sequence in this assay (P35968 whole entry): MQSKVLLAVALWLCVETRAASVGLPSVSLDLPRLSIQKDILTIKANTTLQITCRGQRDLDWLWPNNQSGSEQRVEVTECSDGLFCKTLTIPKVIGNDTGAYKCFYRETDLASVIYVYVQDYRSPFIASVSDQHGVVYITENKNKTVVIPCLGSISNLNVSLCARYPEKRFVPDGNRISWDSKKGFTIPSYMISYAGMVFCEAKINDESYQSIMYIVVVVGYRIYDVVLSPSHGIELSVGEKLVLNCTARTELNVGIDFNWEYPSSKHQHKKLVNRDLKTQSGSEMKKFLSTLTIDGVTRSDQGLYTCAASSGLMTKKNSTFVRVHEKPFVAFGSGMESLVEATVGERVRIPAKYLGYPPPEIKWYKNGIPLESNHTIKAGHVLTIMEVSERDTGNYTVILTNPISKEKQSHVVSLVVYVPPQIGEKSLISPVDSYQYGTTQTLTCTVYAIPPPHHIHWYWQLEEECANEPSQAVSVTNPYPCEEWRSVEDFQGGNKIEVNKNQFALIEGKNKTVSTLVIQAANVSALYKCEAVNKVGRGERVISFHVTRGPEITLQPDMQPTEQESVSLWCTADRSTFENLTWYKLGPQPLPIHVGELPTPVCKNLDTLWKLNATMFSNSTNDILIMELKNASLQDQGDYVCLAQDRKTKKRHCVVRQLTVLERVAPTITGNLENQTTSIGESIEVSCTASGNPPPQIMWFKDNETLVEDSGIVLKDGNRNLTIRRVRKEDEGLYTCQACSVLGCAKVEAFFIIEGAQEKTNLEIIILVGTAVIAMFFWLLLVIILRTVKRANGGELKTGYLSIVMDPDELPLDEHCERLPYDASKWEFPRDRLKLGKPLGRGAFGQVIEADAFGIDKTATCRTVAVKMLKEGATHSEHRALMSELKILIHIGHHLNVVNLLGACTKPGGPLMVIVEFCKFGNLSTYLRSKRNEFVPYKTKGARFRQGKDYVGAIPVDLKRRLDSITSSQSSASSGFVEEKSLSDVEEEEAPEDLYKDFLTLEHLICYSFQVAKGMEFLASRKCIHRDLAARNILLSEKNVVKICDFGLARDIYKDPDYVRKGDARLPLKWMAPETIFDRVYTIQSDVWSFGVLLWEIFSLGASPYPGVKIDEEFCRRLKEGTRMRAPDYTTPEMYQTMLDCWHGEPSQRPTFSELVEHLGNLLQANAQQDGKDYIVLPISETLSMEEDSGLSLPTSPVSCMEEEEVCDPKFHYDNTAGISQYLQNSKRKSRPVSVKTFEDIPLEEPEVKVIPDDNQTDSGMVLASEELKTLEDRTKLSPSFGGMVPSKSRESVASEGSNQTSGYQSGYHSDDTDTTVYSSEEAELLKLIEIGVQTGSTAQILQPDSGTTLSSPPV

Variant | effect of a mutation on the interaction
D554A;C588S | with no effect

Variants of: B1
Conditions: with igf1r_human IGF1R
Remark: another data set of the same source
Target sequence in this assay (P08069 whole entry, looked up): as the sequence (P08069 whole entry, looked up) above

Variant | effect of a mutation on the interaction
D554A;C588S | with no effect

Variants of: B2
Conditions: with erbb4_human ERBB4, Q15303

Variant | effect of a mutation on the interaction
D199A;C231S | disrupting interaction
C231S | with no effect

Variants of: B2
Conditions: with fgfr2_human FGFR2, P21802
Target sequence in this assay (P21802 whole entry, looked up): as the sequence (P21802 whole entry, looked up) above

Variant | effect of a mutation on the interaction
D199A;C231S | disrupting interaction
C231S | disrupting interaction

Variants of: B2
Conditions: with vgfr2_human KDR
Target sequence in this assay (P35968 whole entry): as the sequence (P35968 whole entry) above

Variant | effect of a mutation on the interaction
D199A;C231S | with no effect
C231S | with no effect

Variants of: B2
Conditions: with igf1r_human IGF1R
Target sequence in this assay (P08069 whole entry, looked up): as the sequence (P08069 whole entry, looked up) above

Variant | effect of a mutation on the interaction
D199A;C231S | disrupting interaction
C231S | increasing interaction

Variants of: B2
Conditions: with igf1r_human IGF1R
Remark: another data set of the same source
Target sequence in this assay (P08069 whole entry, looked up): as above

Variant | effect of a mutation on the interaction
C235S | decreasing interaction
D201A;C235S | with no effect

Variants of: B2
Conditions: with erbb4_human ERBB4, Q15303
Remark: another data set of the same source

Variant | effect of a mutation on the interaction
C231S | disrupting interaction

Variants of: B2
Conditions: with fgfr4_human FGFR4, P22455
Target sequence in this assay (P22455 whole entry, looked up): as the sequence (P22455 whole entry, looked up) above

Variant | effect of a mutation on the interaction
C231S | increasing interaction
